Legend:
KDM5C(1-765) (human) = biological target: T1, KDM5C(1-765) (human) (UniProt P41229)
T1 sequence: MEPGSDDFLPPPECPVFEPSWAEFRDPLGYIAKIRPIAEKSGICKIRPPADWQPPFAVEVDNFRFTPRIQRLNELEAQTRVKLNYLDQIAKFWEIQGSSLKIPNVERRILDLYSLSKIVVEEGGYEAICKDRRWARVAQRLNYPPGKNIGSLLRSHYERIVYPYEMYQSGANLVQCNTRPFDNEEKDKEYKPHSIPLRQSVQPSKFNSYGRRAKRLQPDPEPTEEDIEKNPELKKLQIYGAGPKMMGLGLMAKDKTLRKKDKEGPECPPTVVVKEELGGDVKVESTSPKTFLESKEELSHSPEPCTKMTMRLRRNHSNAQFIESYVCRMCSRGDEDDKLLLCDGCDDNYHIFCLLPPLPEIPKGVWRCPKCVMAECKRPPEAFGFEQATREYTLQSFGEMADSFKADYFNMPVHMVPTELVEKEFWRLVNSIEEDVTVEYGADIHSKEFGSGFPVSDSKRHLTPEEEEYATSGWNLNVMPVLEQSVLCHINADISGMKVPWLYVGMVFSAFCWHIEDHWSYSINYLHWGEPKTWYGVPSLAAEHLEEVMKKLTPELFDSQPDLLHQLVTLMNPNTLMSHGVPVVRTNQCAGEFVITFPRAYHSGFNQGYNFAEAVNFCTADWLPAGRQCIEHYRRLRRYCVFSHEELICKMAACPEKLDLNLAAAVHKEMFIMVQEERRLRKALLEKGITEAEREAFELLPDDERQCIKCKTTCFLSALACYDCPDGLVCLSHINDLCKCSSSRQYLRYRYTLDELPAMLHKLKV

KDM4E(1-337) (human) = biological target: T2, KDM4E(1-337) (human) (UniProt B2RXH2)
T2 sequence: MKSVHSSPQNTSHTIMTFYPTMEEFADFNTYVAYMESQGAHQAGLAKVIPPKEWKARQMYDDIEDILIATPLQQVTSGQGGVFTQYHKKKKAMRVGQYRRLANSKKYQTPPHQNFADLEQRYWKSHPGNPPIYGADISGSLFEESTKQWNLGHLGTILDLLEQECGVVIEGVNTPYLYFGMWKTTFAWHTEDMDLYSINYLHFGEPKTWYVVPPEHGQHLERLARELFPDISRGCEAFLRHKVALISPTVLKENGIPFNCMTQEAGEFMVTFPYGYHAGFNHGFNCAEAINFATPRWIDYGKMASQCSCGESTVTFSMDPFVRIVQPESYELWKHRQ

KDM3A(515-1,317) (human) = biological target: T3, KDM3A(515-1,317) (human) (UniProt Q9Y4C1)
T3 sequence: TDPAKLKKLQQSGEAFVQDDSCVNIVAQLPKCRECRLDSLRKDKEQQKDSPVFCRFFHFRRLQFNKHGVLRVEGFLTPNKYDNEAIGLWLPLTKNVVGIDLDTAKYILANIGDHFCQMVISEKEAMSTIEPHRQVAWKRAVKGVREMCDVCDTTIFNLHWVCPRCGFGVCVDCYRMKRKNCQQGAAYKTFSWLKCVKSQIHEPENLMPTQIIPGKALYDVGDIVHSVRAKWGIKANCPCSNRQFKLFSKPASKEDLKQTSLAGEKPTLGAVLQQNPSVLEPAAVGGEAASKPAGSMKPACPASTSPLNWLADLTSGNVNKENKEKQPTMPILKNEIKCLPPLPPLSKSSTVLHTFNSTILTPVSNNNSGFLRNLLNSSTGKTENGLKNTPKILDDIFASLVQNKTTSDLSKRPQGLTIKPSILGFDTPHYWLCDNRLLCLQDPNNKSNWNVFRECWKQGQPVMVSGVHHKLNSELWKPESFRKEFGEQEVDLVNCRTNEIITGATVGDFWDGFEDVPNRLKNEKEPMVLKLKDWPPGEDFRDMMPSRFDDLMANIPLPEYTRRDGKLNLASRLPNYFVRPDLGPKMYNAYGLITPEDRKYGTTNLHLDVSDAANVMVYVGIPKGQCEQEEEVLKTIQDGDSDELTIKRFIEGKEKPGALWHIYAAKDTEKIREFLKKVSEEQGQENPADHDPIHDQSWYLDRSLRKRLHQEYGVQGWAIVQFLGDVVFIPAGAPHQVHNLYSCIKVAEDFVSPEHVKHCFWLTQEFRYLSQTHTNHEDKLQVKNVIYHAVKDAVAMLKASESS

[1] = biological target: KDM6B(1,141-1,590) (human) (UniProt O15054)
Chain of KDM6B(1,141-1,590) (human) (O15054 1141-1590): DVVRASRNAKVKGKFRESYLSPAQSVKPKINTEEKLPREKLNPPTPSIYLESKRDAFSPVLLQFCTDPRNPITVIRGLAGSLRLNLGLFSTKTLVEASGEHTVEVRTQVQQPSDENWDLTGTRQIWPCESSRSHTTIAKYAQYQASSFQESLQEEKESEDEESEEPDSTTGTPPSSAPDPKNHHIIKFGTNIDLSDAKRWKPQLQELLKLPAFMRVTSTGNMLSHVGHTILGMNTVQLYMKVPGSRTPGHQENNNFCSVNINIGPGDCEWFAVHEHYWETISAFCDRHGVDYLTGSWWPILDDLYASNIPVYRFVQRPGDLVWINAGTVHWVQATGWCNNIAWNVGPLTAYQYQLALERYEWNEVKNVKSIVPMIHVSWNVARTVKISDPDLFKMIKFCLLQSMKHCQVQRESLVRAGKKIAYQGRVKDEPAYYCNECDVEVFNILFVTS

| Substance | apparent KM, formaldehyde dehydrogenase-coupled demethylation assay (KDM5C(1-765) (human)) | apparent KM, formaldehyde dehydrogenase-coupled demethylation assay (KDM4E(1-337) (human)) | apparent KM, formaldehyde dehydrogenase-coupled demethylation assay (KDM3A(515-1,317) (human)) | other results |
| --- | --- | --- | --- | --- |
| H3(1-15)K4Rme2s (from UniProt P68431 2-16) (peptide) | 21.1 µM |  |  |  |
| H3(1-15)K4me3 (from UniProt P68431 2-16) (peptide) | 7.6 µM |  |  |  |
| H3(1-15)K9Rme (from UniProt P68431 2-16) (peptide) |  | 169 µM | 12.1 µM |  |
| H3(1-15)K9me2 (from UniProt P68431 2-16) (peptide) |  |  | 44.5 µM |  |
| H3(1-15)K9me3 (from UniProt P68431 2-16) (peptide) |  | 17.8 µM |  |  |
| H3(14-34)K27Rme2a (from UniProt P68431 15-35) (peptide) |  |  |  | apparent KM, formaldehyde dehydrogenase-coupled demethylation assay [1]: 676 µM |
| H3(14-34)K27me3 (from UniProt P68431 15-35) (peptide) |  |  |  | apparent KM, formaldehyde dehydrogenase-coupled demethylation assay [1]: 6.7 µM |

Now from value to substance, other results behind:

| apparent KM, formaldehyde dehydrogenase-coupled demethylation assay (KDM5C(1-765) (human)) | apparent KM, formaldehyde dehydrogenase-coupled demethylation assay (KDM4E(1-337) (human)) | apparent KM, formaldehyde dehydrogenase-coupled demethylation assay (KDM3A(515-1,317) (human)) | Substance | other results |
| --- | --- | --- | --- | --- |
| 29 µM |  |  | H3(1-15)K4Rme2a (from UniProt P68431 2-16) (peptide) |  |
|  | 66 µM | 11.6 µM | H3(1-15)K9Rme2a (from UniProt P68431 2-16) (peptide) |  |
|  | 101 µM | 23.7 µM | H3(1-15)K9Rme2s (from UniProt P68431 2-16) (peptide) |  |
